Consider one protein from article PMC8286825 (Biochemical Journal, 2021).

Where two headings read alike, the source gives them in different places.

Assay in all cases: AUC
Series [1] deals with the molecule itself.
In series [2] the target is A6NHR9.
The target in series [3] is A6NHR9. This is another data set of the same source.
Series [4] has as its target A6NHR9. This is another data set of the same source.
Series [5] addresses A6NHR9. This is another data set of the same source.
Series [6] deals with A6NHR9. This is another data set of the same source.

B1: UBL-containing SMCHD1 ATPase (residues 25–702) (domain or fragment, human, UniProt A6NHR9 25-702, looked up)
chain: HRTVYLFDRREKESELGDRPLQVGERSDYAGFRACVCQTLGISPEEKFVITTTSRKEITCDNFDETVKDGVTLYLLQSVNQLLLTATKERIDFLPHYDTLVKSGMYEYYASEGQNPLPFALAELIDNSLSATSRNIGVRRIQIKLLFDETQGKPAVAVIDNGRGMTSKQLNNWAVYRLSKFTRQGDFESDHSGYVRPVPVPRSLNSDISYFGVGGKQAVFFVGQSARMISKPADSQDVHELVLSKEDFEKKEKNKEAIYSGYIRNRKPSDSVHITNDDERFLHHLIIEEKEKDSFTAVVITGVQPEHIQYLKNYFHLWTRQLAHIYHYYIHGPKGNEIRTSKEVEPFNNIDIEISMFEKGKVPKIVNLREIQDDMQTLYVNTAADSFEFKAHVEGDGVVEGIIRYHPFLYDRETYPDDPCFPSKLKDEDDEDDCFILEKAARGKRPIFECFWNGRLIPYTSVEDFDWCTPPKKRGLAPIECYNRISGALFTNDKFQVSTNKLTFMDLELKLKDKNTLFTRILNGQEQRMKIDREFALWLKDCHEKYDKQIKFTLFKGVITRPDLPSKKQGPWATYAAIEWDGKIYKAGQLVKTIKTLPLFYGSIVRFFLYGDHDGEVYATGGEVQIAMEPQALYDEVRTVPIAKLDRTVAEKAVKKYVEDEMARLPDRLSVTWPEGDE
By stoichiometry N is commonly meant a count of units in the complex or per binding partner. For B1, in series [1], the “stoichiometry N” value came out at 2. Besides, the Monomer (%) in series [2] was 53.4%; in series [3], 76.8%; in series [4], 57.6%; in series [5] it was 88.2%; in series [6] it was 61.5%.
